B1: Sb#55 (VHH)
VHH: QVQLVESGGGSVQAGGSLRLSCAASGKIWTIKYLGWFRQAPGKEREGVAALMTRWGYTYYADSVKGRFTVSLDNAKNTVYLQMNSLKPEDTALYYCAAANYGSNFPLAEEDYWYWGQGTQVTVS
B2: Sb#48 (VHH)
VHH: QVQLVESGGGLVQAGGSLRLSCAASGFPVSQSVMAWYRQAPGKEREWVAAIYSKGQYTHYADSVKGRFTISRDNAKNTVYLQMNSLKPEDTAVYYCNVKDAGSSYWDYDYWGQGTQVTVS
B3: Sb#25 (VHH)
VHH: QVQLVESGGGLVQAGGSLRLSCAASGFPVHAWEMAWYRQAPGKEREWVAAIRSFGSSTHYADSVKGRFTISRDNAKNTVYLQMNSLKPEDTAVYYCNVKDFGTHHYAYDYWGQGTQVTVS
B4: Sb#36 (VHH)
VHH: QVQLVESGGGLVQAGGSLRLSCAASGFPEIAWEMAWYRQAPGKEREWVAAIRSFGERTLYADSVKGRFTISRDNAKNTVYLQMNSLKPEDTAVYYCNVKDFGWQHQEYDYWGQGTQVTVS
B5: Sb#51 (VHH)
VHH: QVQLVESGGGLVQAGGSLRLSCAASGFPVYQGEMHWYRQAPGKEREWVAAIRSTGVQTWYADSVKGRFTISRDNAKNTVYLQMNSLKPEDTAVYYCRVWVGTHYFGQGTQVTVS
B6: Sb#39 (VHH)
VHH: QVQLVESGGGLVQAGGSLRLSCAASGFPVFHVWMEWYRQAPGKEREWVAAIDSAGWHTYYADSVKGRFTISRDNAKNTVYLQMNSLKPEDTAVYYCNVKDAGNTTSAYDYWGQGTQVTVS
B7: Sb#21 (VHH)
VHH: QVQLVESGGGLVQAGGSLRLSCAASGFPVKHHWMFWYRQAPGKEREWVAAIKSYGYGTEYADSVKGRFTISRDNAKNTVYLQMNSLKPEDTAVYYCFVGVGTHYAGQGTQVTVS
B8: Sb#35 (VHH)
VHH: QVQLVESGGGLVQAGGSLRLSCAASGFPVEHYWMEWYRQAPGKEREWVAAITSFGYRTYYADSVKGRFTISRDNAKNTVYLQMNSLKPEDTAVYYCNVKDWGFASHAYDYWGQGIQVTVS
B9: Sb#50 (VHH)
VHH: QVQLVESGGGSVQAGGSLRLSCAASGYIDKIVYLGWFRQAPGKEREGVAALYTLSGHTYYADSVKGRFTVSLDNAKNTVYLQMNSLKPEDTALYYCAAATEGHAHALYRLHYYWGQGTQVTVS
B10: Sb#46 (VHH)
VHH: QVQLVESGGGLVQAGGSLRLSCAASGFPVDNGYMHWYRQAPGKEREWVAAIDSYGWHTIYADSVKGRFTISRDNAKNTVYLQMNSLKPEDTAVYYCNVKDKGQMRAAYDYWGQGTQVTVS
B11: Sb#38 (VHH)
VHH: QVQLVESGGGLVQAGGSLRLSCAASGFPVEWSHMHWYRQAPGKEREWVAAIVSKGGYTLYADSVKGRFTISRDNAKNTVYLQMNSLKPEDTAVYYCNVKDYGVHFKRYDYWGQGTQVTVI
B12: Sb#32 (VHH)
VHH: QVQLDESGGGLVQAGGSLRLSCAASGFPVYHAWMEWYRQAPGKEREWVAAITSSGRHTYYADSVKGRFTISRDNAKNTVYLQMNSLKPEDTAVYYCNVKDAGRVYNSYDYWGQGTQVTVS
B13: Sb#31 (VHH)
VHH: QVQLVESGGGLVQAGGSLRLSCAASGFPVNSHFMEWYRQAPGKEREWVAAIQHSSGFHTYYADSVKGRFTISRDNAKNTVYLQMNSLKPEDTAVYYCNVKDTGTTEDYDYWGQGTQVTVS
B14: Sb#58 (VHH)
VHH: QVQLVESGGGSVQAGGSLRLSCAASGNISTIEYLGWFRQAPGKEREGVAALYTWHGQTYYADSVKGRFTVSLDNAKNTVYLQMNSLKPEDTALYYCAAARWGRHMPLSATEYSYWGQGTQVTVS
B15: Sb#56 (VHH)
VHH: QVQLVESGGGSVQAGGSLRLSCAASGNISQIHYLGWFRQAPGKEREGVAALNTDYGYTYYADSVKGRFTVSLDNAKNTVYLQMNSLKPEDTALYYCAAAYYFGDDIPLWWEAYSYWGQGTQVTVS
B16: Sb#30 (VHH)
VHH: QVQLVESGGGLVQAGGSLRLSCAASGFPVTMAWMWWYRQAPGKEREWVAAIRSEGVRTYYADSVKGRFTISRDNAKNTVYLQMNSLKPEDTAVYYCNVKDYGQAHAYYDYWGQGTQVTVS
B17: Sb#40 (VHH)
VHH: QVQLVESGGGLVQAGGSLRLSCAASGFPVYYNWMEWYRQAPGKEREWVAAIHSNGDETFYADSVKGRFTISRDNAKNTVYLQMNSLKPEDTAVYYCNVKDIDAEAYAYDYWGQGTQVTVS
B18: Sb#62 (VHH)
VHH: QVQLVESGGGSVQAGGSLRLSCAASGTIADIKYLGWFRQAPGKEREGVAALMTRWGSTYYADSVKGRFTVSLDNAKNTVYLQMNSLKPEDTALYYCAAANYGANYPLYSQQYSYWGQGTQVTVS
B19: Sb#63 (VHH)
VHH: QVQLVESGGGSVQAGGSLRLSCAASGSISSIKYLGWFRQAPGKEREGVAALMTRWGMTYYADSVKGRFTVSLDNAKNTVYLQMNSLKPEDTALYYCAAANYGANEPLQYTHYNYWGQGTQVTVS
B20: Sb#65 (VHH)
VHH: QVQLVESGGGSVQAGGSLRLSCAASGTIAHIKYLGWFRQAPGKEREGVAALMTKWGQTYYADSVKGRFTVSLDNAKNTVYLQMNSLKPEDTALYYCAAASYGANFPLKASDYSYWGQGTQVTVS
B21: Sb#28 (VHH)
VHH: QVQLVESGGGLVQAGGSLRLSCAASGFPVYHSTMFWYRQAPGKEREWVAAIYSSGQHTYYADSVKGRFTISRDNAKNTVYLQMNSLKPEDTAVYYCNVKDSGQWRQEYDYWGQGTQVTVS
B22: Sb#37 (VHH)
VHH: QVQLVESGGGLVQAGGSLRLSCAASGFPVYHAYMEWYRQAPGKEREWVAAIYSNGEHTYYADSVKGRFTISRDNAKNTVYLQMNSLKPEDTAVYYCNVKDSGSFNQAYDYWGQGTQVTVS
B23: Sb#26 (VHH)
VHH: QVQLVESGGGLVQAGGSLRLSCAASGFPVNTWWMHWYRQAPGKEREWVAAITSWGFRTYYADSVKGRFTISRDNAKNTVYLQMNSLKPEDTAVYYCNVKDKGMAVQWYDYWGQGTQVTVS
B24: Sb#29 (VHH)
VHH: QVQLVESGGGLVQAGGSLRLSCAASGFPVEHEMAWYRQAPGKEREWVAAIRSMGRKTLYADSVKGRFTISRDNAKNTVYLQMNSLKPEDTAVYYCNVKDFGYTWHEYDYWGQGTQVTVS
B25: Sb#52 (VHH)
VHH: QVQLVESGGGSVQAGGSLRLSCAASGNIQRIYYLGWFRQAPGKEREGVAALMTYTGHTYYADSVKGRFTVSLDNAKNTVYLQMNSLKPEDTALYYCAAAYVGAENPLPYSMYGYWGQGTQVTVS
B26: Sb#49 (VHH)
VHH: QVQLVESGGGSVQAGGSLRLSCAASGSIGQIEYLGWFRQAPGKEREGVAALNTWTGRTYYADSVKGRFTVSLDNAKNTVYLQMNSLKPEDTALYYCAAARWGRTKPLNTYYYSYWGQGTPVTVS
B27: Sb#66 (VHH)
VHH: QVQLVESGGGSVQAGGSLRLSCAASGSIQAITYLGWFRQAPGKEREGVAALVTWNGQTYYADSVKGRFTVSLDNAKNTVYLQMNSLKPEDTALYYCAAADWGYDWPLWDEWYWYWGQGTQVTVS
B28: Sb#23 (VHH)
VHH: QVQLVESGGGLVQAGGSLRLSCAASGFPVYAAEMEWYRQAPGKEREWVAAISSQGTITYYADSVKGRFTISRDNAKNTVYLQMNSLKPEDTAVYYCFVYVGKSYIGQGTQVSVS
B29: Sb#59 (VHH)
VHH: QVQLVESGGGSVQAGGSLRLSCAASGNIESIYYLGWFRQAPGKEREGVAALWTGDGETYYADSVKGRFTVSLDNAKNTVYLQMNSLKPEDTALYYCAAAAWGNSAPLTTYRYYYWGQGTQVTVS
B30: Sb#27 (VHH)
VHH: QVQLVESGGGLVQAGGSLRLSCAASGFPVYNTWMEWYRQAPGKEREWVAAITSHGYKTYYADSVKGRFTISRDNAKNTVYLQMNSLKPEDTAVYYCNVKDEGDMFTAYDYWGQGTQVTVS
B31: Sb#33 (VHH)
VHH: QVQLVESGGGLVQAGGSLRLSCAASGFPVAHAWMEWYRQAPGKEREWVAAITSYGYKTYYADSVKGRFTISRDNAKNTVYLQMNSLKPEDTAVYYCNVKDTGTYRFYYDYWGQGTQVTVS
B32: Sb#53 (VHH)
VHH: QVQLVESGGGSVQAGGSLRLSCAASGQISHIKYLGWFRQAPGKEREGVAALITRWGQTYYADSVKGRFTVSLDNAKNTVYLQMNSLKPEDTALYYCAAADYGASDPLWFIHYLYWGQGTQVTVS
B33: Sb#64 (VHH)
VHH: QVQLVESGGGSVQAGGSLRLSCAASGEIESIFYLGWFRQAPGKEREGVAALYTYVGQTYYADSVKGRFTVSLDNAKNTVYLQMNSLKPEDTALYYCAAASYGAAHPLSIMRYYYWGQGTQVTVS

These binders were tested against SARS-CoV-2 RBD construct consisting of residues Pro330-Gly526 fused to Venus YFP (RBD-vYFP) (SARS-CoV-2, UniProt P0DTC2).
B1: binds.
B2: binds.
B3: binds.
B4: binds.
B5: binds.
B6: binds.
B7: binds.
B8: binds.
B9: binds.
B10: binds.
B11: binds.
B12: binds.
B13: binds.
B14: binds.
B15: binds.
B16: binds.
B17: binds.
B18: binds.
B19: binds.
B20: binds.
B21: binds.
B22: binds.
B23: binds.
B24: binds.
B25: binds.
B26: binds.
B27: binds.
B28: binds.
B29: binds.
B30: binds.
B31: binds.
B32: binds.
B33: binds.

Reference: paper doi:10.1101/2020.04.16.045419 (bioRxiv, 2020)
